Assay [1] has as its target T1, human LAG-3 protein with hFc tag (hLAG-3-hFc protein) (human, UniProt P18627 23-450).
T1 construct: also called immunogen 1; LAG-3 extracellular domain protein; not shown: human IgG Fc fragment (hFc) of the pCpC vector
T1 sequence: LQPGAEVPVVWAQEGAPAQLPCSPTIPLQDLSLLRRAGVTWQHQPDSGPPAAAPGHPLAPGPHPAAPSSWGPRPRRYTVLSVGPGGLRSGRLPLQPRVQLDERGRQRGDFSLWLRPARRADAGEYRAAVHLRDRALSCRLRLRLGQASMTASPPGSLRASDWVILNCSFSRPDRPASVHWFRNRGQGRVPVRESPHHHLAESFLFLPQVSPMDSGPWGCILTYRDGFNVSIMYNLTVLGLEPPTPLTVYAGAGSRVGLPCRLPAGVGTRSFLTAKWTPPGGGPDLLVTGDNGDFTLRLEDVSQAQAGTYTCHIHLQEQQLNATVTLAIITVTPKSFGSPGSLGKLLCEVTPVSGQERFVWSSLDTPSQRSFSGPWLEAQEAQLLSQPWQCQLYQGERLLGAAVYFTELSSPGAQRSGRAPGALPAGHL
Kind of assay: FACS, blocks LAG-3-hFc binding to MHC II on Raji; 0.274 nM. On the procedure:
The FACS reaction plate incubating the Raji cells was centrifuged to discard the supernatant. The above mixture was added as 100 μl per well to Raji cells and incubated on ice for 1-2 hours. The plate was washed twice with blocking solution (PBS, 2% fetal bovine serum) by centrifugation, added with 100 microliters of fluorescent (Alexa 488)-labeled secondary antibodies per well, and incubated on ice for 1.0 hours. The plate was washed 2-3 times by centrifugation with blocking solution (PBS, 2% fetal bovine serum), added with 100 microliters of PBS per well to suspend cells, and detected using FACS (FACS Calibur, BD) and the results were analyzed. Wherein, the IgG control was murine IgG, and the data in the table is the inhibition rate (%).

Assay [2] has as its target T2, human LAG-3 (full length, on the cell surface) (human, UniProt P18627 23-525).
T2 construct: Full-length human LAG-3 expressed on cells; also called HEK293-hLAG-3; HEK293 cells transfected with LAG-3 gene
T2 sequence: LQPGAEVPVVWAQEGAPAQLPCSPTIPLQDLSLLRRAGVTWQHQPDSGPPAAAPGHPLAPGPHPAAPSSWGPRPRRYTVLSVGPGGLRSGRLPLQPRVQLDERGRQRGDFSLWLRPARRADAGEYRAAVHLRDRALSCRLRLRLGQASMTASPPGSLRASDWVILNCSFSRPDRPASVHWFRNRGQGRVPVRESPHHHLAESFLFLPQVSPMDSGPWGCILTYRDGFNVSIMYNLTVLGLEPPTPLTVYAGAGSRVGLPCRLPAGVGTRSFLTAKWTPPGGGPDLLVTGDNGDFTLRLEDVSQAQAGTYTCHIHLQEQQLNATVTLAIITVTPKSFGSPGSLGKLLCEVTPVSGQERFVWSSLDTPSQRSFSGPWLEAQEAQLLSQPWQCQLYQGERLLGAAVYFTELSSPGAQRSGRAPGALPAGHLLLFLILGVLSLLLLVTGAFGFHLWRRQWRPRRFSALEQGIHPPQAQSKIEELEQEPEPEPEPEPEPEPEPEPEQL
The assay is described as follows: FACS, HEK293-hLAG-3; 0.000 nM. An excerpt: The pIRES plasmid with the monkey-derived full-length gene was transfected into the HEK293 cell line to construct a HEK293 stable cell line containing monkey LAG-3 (herein referred to as HEK293-cLAG-3 stable cell line). The HEK293-hLAG-3 stable cell line and HEK293-cLAG-3 stable cell line were expanded in a T-75 cell culture flask to a 90% confluence. The medium was aspirated, and the cells were washed with HBSS (Hanks' Balanced Salt Solution) 1-2 times, then treated with a enzyme-free cell dissociation fluid (Versene solution: Life technology) and the cells were collected. The cells were washed with HBSS buffer for 1-2 times. After counted, the cells were diluted with HBSS to 1-2×10⁶ cells per ml, added with 1% goat serum blocking solution, incubated on ice for 20-30 minutes, and then washed with HBSS for 2 times by centrifugation. The collected cells were suspended in the FACS buffer (HBSS+1% BSA) to 2×10⁶ cells/ml, added as 100 microliters per well to a 96-well FACS reaction plate, added with 100 microliters per well of the antibody sample to be tested, incubated on ice for 1-2 hours. The plate was washed twice with the FACS buffer by centrifugation, added with 100 microliters of fluorescent (Alexa 488)-labeled secondary antibodies per well, and incubated on ice for 0.5-1.0 hours. The plate was washed 2-3 times with FACS buffer by centrifugation, added with 100 μl fixative solution (4% Paraformaldehyde) per well to suspend the cells. 5-10 minutes later, it was washed 1-2 times with FACS buffer by centrifugation. The cells were suspended with 100 microliters of FACS buffer, FACS (FACSCalibur, BD) was used for detection and the results were analyzed.
(Flow cytometry measures light scatter and fluorescence of single cells or particles in a stream.)

In assay [3] the target is T3, hFc tagged monkey LAG-3 protein (cLAG-3-hFc protein) (monkey; human).
T3 construct: Made in HEK293 cells; also called monkey LAG-3 extracellular domain protein; not shown: human IgG Fc fragment (hFc) of the pCpC vector
T3 chain: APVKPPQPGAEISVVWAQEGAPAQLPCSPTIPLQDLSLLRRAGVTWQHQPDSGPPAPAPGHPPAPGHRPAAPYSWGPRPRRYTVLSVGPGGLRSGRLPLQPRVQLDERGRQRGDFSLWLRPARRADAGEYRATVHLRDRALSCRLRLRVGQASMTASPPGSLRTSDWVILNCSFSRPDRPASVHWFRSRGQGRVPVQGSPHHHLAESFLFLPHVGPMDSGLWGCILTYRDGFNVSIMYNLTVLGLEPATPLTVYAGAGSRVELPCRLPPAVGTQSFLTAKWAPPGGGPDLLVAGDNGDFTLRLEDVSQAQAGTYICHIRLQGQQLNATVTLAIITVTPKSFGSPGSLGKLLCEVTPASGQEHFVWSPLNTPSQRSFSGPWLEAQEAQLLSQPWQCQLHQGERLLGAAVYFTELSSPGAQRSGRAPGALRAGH
The assay is described as follows: ELISA, cLAG-3-hFc coated; 0.0000 nM. The method, then:
The plate was sealed with plastic film and incubated overnight at 4° C. The plate was washed 2 times with the plate washing solution (PBS+0.01% Tween20) on the next day, and added with the blocking solution (PBS+0.01% Tween20+1% BSA) and blocked at room temperature for 1-2 hours. The blocking solution was poured out, and the plate was added with 50-100 μl of the antibody sample to be tested to each well, incubated at 37° C. for 1-2 hours, and washed 2-3 times with a plate washing solution (PBS+0.01% Tween20). HRP (horseradish peroxidase) labeled secondary antibody was added, and the plate was incubated at 37° C. for 1-2 hours, and washed 2-3 times with a plate washing solution (PBS+0.01% Tween20). 100 μl of TMB substrate was added to each well. After incubated at room temperature for 15-30 minutes, the plate was added with 100 μl of stop solution (1.0N HCl) to each well.
(In general: ELISA stands for enzyme-linked immunosorbent assay.)

Substitutions are numbered along the chain they refer to.

B1: 405B8H3 (mouse antibody purified from hybridoma) (antibody, V domains shown)
VH: QVQLQQSGAELVRPGASVTLSCKASGYTFTDYEMHWVKQTPVHGLEWIGATDPETGNSAYNQKFKGKAIMTADKSSSTAYMELRSLTSEDSAVYYCISTGWNDWGQGTSLTVSS
VL: DIKMTQSPSSMYASLGERVTITCKASQDINSYLSWFQQKPGKSPKTLIYRADRLLDGVPSRFSGSGSGQDYSLTISSLEYGDMGIYYCLQYDEFPYTFGGGTKLEIK
notes: also called mAb103-405B8H3; 405B81-13
On to B1, for which, in assay [1], the “Inhibition rate (%)” value turned out to be 2.1%. In assay [2], this molecule yielded a Mean fluorescence intensity of 3.7 MFI.

B2: 105F1E10 (LAG-3 mouse-human chimeric antibody) (antibody, V domains shown)
VH: EVQLQQSGPELVKPGASVKMSCRASGYTFTDFKMHWMKQSHGKSLEWIGYIAPNNGGTAYNQKFRGKATLTVNESSNTAYMELRSLTSEDSAVYYCVDWDDVDYWGQGTTLTVSS
VL: B1 VL with P40S, D52N, L55V, G81E, D92V, Y96L, G100A, I106L
Turning to B2, the OD450 in assay [3] was 0.15 OD450.

B3: 105F1E10 (mouse antibody purified from hybridoma) (antibody, V domains shown)
VH: B2 VH
VL: B1 VL with P40S, D52N, L55V, G81E, D92V, Y96L, G100A, I106L
notes: also called mAb009-105F1E10
For B3, the “Inhibition rate (%)” value in assay [1] is -8.3%. Also, the Mean fluorescence intensity in assay [2] was 3.7 MFI.

B4: 405B8H3 (LAG-3 mouse-human chimeric antibody) (antibody, V domains shown)
VH: B1 VH
VL: B1 VL
notes: also called mouse-human chimeric antibody 405B8H3
For B4, the OD450 in assay [3] stood at 0.15 OD450.

B5: 409B11E12 (LAG-3 mouse-human chimeric antibody) (antibody, V domains shown)
VH: B1 VH with P41T, G56S, N57Y, M70L, S98A
VL: B1 VL with I2L, D52N, G81E
On to B5, for which, in assay [3], the OD450 worked out at 0.14 OD450.

B6: 409D4E10 (LAG-3 mouse-human chimeric antibody) (antibody, V domains shown)
VH: B1 VH with Y27N, G56D, S58T, M70L, A72T, S98T, T99S
VL: B1 VL with D52N, G81E, D92N
In assay [3], B6 gave an OD450 of 0.18 OD450.

B7: 409B11E12 (mouse antibody purified from hybridoma) (antibody, V domains shown)
VH: B1 VH with P41T, G56S, N57Y, M70L, S98A
VL: B1 VL with I2L, D52N, G81E
notes: also called mAb104-409B11E12
On to B7, for which the “Inhibition rate (%)” value in assay [1] is -3.9%. The Mean fluorescence intensity in assay [2] was found to be 2.5 MFI.

B8: 409D4E10 (mouse antibody purified from hybridoma) (antibody, V domains shown)
VH: B1 VH with Y27N, G56D, S58T, M70L, A72T, S98T, T99S
VL: B1 VL with D52N, G81E, D92N
notes: also called mAb112-409D4E10
As to B8, the “Inhibition rate (%)” value in assay [1] is -7.5%. In assay [2], this molecule gave a Mean fluorescence intensity of 2.8 MFI.

B9: 556F6B8 (mouse antibody purified from hybridoma) (antibody, V domains shown)
VH: RVQLKQSGPGLVQPSQSLSITCTVSGFSLIKYGVHWVRQSPGEGLEWLGVIWRGGITDYNAAFMSRLSITKDNSKSQVFFKMNSLQADDTAIYYCAKWDGPLAMDYWGQGTSVTVSS
VL: DIVMTQSHKFLSTSVGDRVSITCKASQDVGTTVAWYQQKPGQSPKLLIYWASTRHTGVPDRFTGSGSGTDFTLTISNVQSEDLADYFCQQYSSYPYTFGGGTKLEIK
notes: also called mAb123-556F6B8
For the molecule B9, in assay [1], the “Inhibition rate (%)” value amounted to 6%. This molecule registered a Mean fluorescence intensity in assay [2] of 2.8 MFI.

B10: 556F6B8 (LAG-3 mouse-human chimeric antibody) (antibody, V domains shown)
VH: B9 VH
VL: B9 VL
notes: also called 556F8B8
For B10, in assay [3], the OD450 was 0.19 OD450.
